Data taken from US20120134928A1.

Molecular target: Est1-(myc)13 (Saccharomyces cerevisiae (from context; not stated for this protein)) (UniProt P17214)
Assay: co-immunoprecipitation with anti-Rat1 peptide antibodies from extracts of yeast over-expressing Est1-(myc)13, probed for myc

UniProt P17214, sequence (P17214 whole entry): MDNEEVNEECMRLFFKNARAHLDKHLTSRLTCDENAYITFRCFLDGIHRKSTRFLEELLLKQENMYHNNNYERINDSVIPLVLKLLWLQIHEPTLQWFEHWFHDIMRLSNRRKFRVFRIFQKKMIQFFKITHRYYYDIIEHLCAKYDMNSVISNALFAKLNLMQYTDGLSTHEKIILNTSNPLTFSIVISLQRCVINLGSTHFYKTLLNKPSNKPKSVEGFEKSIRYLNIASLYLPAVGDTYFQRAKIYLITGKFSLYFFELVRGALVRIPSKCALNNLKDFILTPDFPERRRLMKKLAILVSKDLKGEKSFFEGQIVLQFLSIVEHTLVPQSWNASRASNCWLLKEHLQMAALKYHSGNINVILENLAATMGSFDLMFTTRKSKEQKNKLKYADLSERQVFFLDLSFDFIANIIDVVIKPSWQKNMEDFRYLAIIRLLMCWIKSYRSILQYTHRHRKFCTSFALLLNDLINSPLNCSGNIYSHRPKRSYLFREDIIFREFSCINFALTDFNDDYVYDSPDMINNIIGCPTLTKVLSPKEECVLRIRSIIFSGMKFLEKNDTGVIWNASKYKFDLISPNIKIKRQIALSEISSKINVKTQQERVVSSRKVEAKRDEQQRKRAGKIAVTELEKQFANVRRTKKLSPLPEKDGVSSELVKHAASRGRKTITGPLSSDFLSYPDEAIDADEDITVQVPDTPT

- co-immunoprecipitation efficiency: 5%
Substance: S. cerevisiae Rat1 protein (from UniProt Q02792 2-1006) (enzyme)
